In publication PMC8641752:

How the values were obtained:
Assay in all cases: co-IP; substrate (Hmg2-GFP, Ste6*-GFP, CPY*-GFP with GFP-Trap; Pdr5*-Myc with Myc Trap) precipitated from yeast microsomes solubilised in Tween IP buffer (500 mM NaCl, 50 mM Tris pH 7.5, 10 mM EDTA, 1.5% Tween-20), overnight 4°C; blots with anti-HA, anti-Cdc48
[1] = target: Pdr5*-Myc (S. cerevisiae) (UniProt P33302)
Hmg2-GFP (S. cerevisiae) = Hmg2-GFP (S. cerevisiae) (UniProt P12684)
[2] = target: Ste6*-GFP (S. cerevisiae) (UniProt P12866)

Measured: fraction of Dfm1-5Ashp bound compared with wild-type Dfm1

Chain of Dfm1-5Ashp (Q12743 whole entry): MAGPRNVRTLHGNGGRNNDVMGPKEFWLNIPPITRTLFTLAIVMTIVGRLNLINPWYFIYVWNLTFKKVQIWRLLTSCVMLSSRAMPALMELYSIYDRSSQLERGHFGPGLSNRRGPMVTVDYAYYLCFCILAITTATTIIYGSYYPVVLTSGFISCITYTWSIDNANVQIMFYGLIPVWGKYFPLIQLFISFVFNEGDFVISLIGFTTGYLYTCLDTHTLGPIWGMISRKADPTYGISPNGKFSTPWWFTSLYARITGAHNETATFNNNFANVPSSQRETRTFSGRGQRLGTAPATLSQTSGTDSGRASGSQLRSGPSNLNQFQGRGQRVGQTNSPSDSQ
Chain of UniProt P33302 (P33302 whole entry): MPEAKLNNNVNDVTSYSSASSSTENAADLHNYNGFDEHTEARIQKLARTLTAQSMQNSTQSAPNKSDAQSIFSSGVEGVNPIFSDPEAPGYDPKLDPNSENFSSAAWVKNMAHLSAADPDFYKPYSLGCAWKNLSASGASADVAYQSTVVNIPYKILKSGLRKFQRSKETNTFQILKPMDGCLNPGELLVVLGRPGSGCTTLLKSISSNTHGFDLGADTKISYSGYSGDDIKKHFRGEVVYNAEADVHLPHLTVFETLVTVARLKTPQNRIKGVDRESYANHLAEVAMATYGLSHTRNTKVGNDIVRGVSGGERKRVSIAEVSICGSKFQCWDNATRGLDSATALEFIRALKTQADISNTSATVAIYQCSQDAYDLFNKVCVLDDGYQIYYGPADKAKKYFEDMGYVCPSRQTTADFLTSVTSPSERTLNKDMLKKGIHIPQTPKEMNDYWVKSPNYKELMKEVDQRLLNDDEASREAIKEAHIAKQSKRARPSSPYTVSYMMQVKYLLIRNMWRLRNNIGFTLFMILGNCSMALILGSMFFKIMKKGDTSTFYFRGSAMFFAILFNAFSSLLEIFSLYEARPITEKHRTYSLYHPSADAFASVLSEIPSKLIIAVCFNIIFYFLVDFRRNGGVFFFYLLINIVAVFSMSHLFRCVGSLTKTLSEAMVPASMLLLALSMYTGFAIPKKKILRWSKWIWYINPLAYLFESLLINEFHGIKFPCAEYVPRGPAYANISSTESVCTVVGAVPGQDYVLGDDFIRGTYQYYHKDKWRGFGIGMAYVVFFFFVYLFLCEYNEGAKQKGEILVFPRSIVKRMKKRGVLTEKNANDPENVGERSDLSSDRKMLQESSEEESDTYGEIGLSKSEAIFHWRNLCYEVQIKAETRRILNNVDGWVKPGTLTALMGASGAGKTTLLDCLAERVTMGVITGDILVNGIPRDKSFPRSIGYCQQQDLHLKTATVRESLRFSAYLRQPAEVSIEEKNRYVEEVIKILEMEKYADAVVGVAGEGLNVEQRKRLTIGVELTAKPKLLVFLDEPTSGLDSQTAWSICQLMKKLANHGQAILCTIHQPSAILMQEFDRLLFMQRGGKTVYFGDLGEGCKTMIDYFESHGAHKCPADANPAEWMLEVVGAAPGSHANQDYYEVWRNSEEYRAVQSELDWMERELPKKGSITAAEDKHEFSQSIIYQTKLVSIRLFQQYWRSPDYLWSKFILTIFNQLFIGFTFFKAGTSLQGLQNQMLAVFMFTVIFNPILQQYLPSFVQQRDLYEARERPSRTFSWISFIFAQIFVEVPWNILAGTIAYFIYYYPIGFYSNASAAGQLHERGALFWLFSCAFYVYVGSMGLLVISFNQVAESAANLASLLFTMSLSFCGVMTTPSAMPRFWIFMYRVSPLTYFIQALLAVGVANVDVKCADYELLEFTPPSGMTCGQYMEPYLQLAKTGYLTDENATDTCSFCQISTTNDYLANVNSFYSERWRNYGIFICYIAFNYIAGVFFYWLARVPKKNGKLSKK
Chain of UniProt P12684 (P12684 whole entry): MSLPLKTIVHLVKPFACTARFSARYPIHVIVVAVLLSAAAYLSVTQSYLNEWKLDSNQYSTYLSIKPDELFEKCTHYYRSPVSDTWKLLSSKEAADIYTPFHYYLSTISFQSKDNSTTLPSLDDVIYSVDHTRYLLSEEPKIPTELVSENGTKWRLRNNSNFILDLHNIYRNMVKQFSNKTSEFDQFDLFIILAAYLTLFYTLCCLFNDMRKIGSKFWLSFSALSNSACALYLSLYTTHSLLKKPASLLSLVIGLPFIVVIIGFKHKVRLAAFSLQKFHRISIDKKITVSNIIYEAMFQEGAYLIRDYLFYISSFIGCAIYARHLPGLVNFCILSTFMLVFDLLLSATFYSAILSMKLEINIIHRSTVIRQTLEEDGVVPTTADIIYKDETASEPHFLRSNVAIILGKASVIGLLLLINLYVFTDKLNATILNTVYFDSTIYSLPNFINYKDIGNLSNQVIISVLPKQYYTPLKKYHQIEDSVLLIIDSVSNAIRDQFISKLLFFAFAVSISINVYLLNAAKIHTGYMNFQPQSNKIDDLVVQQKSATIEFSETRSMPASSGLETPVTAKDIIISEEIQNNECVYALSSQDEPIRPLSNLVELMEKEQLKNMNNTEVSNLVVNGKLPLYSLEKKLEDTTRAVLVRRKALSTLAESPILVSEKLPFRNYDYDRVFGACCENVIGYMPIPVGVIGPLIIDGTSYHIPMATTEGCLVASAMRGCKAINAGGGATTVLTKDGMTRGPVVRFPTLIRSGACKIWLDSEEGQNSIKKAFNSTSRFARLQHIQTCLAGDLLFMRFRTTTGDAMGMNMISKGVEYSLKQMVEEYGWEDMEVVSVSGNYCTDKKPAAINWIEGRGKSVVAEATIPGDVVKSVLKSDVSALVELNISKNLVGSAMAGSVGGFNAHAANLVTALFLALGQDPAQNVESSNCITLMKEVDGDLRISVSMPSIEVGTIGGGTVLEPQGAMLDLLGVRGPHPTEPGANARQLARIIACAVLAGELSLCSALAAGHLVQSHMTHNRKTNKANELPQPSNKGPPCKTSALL
Chain of UniProt P12866 (P12866 whole entry): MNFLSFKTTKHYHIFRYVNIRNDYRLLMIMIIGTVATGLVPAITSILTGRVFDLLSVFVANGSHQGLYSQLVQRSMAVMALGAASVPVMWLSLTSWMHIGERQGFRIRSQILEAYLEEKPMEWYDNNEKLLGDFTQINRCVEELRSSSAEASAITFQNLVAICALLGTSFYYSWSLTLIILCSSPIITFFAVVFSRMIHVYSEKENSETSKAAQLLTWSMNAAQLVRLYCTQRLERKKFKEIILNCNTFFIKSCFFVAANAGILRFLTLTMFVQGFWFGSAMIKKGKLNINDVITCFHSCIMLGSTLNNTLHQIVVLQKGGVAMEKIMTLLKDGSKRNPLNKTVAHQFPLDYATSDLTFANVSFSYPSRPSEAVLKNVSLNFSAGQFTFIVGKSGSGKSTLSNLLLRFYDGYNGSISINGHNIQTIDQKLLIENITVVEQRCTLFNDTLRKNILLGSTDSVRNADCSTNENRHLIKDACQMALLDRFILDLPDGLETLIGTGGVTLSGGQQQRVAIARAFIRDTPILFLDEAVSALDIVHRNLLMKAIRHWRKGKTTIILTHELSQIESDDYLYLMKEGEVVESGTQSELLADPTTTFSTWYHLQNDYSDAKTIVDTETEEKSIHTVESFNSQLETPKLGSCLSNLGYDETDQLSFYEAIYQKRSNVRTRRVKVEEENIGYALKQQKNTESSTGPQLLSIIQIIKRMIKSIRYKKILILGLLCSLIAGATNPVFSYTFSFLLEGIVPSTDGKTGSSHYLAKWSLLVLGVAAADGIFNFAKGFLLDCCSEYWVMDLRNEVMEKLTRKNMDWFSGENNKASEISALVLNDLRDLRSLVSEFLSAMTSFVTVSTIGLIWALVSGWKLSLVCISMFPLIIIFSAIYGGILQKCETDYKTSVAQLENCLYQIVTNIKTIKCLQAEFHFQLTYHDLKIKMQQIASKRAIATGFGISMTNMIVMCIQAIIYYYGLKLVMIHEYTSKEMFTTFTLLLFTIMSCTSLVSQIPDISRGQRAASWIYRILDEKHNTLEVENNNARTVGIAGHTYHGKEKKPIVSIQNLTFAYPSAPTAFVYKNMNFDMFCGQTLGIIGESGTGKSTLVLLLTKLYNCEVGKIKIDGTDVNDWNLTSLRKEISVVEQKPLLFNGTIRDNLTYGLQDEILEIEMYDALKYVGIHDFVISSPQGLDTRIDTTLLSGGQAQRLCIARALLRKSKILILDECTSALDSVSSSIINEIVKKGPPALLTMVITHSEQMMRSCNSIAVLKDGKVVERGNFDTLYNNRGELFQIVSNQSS

Dfm1-5Ashp (from UniProt Q12743 1-341) (natural protein)
< 5%: all assays above
